Data reported in article PMC3545015.

What was measured:
Pot1pC (198-339 V199D) [1] = target: T1, Pot1pC (198-339 V199D) (Schizosaccharomyces pombe, UniProt O13988 198-339, V199D); assay: ITC
T1 sequence: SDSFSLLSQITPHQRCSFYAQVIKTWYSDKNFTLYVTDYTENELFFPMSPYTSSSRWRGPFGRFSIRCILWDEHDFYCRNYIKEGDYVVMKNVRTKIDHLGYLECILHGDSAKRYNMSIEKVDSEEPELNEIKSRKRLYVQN

Pot1pC (198-339 V199D) [2] = target: T1, Pot1pC (198-339 V199D); assay: X-ray crystal structure

## GGTTACGGT (ssDNA) [9mer]
Pot1pC (198-339 V199D) [1]
  Kd: 24 nM

## GCTTACGGT (ssDNA) [G2C]
Pot1pC (198-339 V199D) [2]
  binding result: binds

## GGTTTCGGT (ssDNA) [A5T]
Pot1pC (198-339 V199D) [1]
  Kd: 63 nM

## GGTAACGGT (ssDNA) [T4A]
Pot1pC (198-339 V199D) [1]
  Kd: 21 nM

## GGATACGGT (ssDNA) [T3A]
Pot1pC (198-339 V199D) [1]
  Kd: 37 nM

## GGTTAGGGT (ssDNA) [C6G]
Pot1pC (198-339 V199D) [1]
  Kd: 6 nM

## GGTTACGCT (ssDNA) [G8C]
Pot1pC (198-339 V199D) [1]
  Kd: 22 nM
